Publication PMC4137058 (The Journal of Cell Biology, 2014)

T1: GST-tagged Sac1 (residues 2-460) (Saccharomyces cerevisiae, UniProt P32368 2-460)
T1 sequence (looked up): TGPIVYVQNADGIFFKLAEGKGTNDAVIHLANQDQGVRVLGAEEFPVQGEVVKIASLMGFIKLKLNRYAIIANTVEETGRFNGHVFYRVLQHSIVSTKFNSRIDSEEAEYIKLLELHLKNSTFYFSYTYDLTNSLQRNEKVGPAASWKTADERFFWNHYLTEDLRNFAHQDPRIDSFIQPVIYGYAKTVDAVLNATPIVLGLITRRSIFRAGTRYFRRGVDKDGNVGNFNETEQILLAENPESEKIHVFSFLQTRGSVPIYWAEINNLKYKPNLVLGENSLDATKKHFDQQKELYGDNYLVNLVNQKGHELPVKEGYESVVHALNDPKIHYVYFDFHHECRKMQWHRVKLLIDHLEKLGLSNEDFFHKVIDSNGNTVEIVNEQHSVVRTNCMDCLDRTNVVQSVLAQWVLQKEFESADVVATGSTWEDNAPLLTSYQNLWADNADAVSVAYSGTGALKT


Molecular target: T1, GST-tagged Sac1 (residues 2-460)
Assay: pull-down

binding result	Binder
binds	Vps74 (residues 46-345) (domain or fragment, Saccharomyces cerevisiae, UniProt Q06385 46-345, looked up) NKKIAYDPEESKLRDNINIPTLTLMEEVLLMGLRDREGYLSFWNDSISYALRGCIIIELALRGKIRILDDSARKRFDLSERLIEVIDSSKTGEVLLDETLQLMKNDEPLSISNWIDLLSGETWNLLKINYQLKQVRERLAKGLVDKGVLRTEMKNFFLFDMATHPIADASCKEAIKRRVLSVLVSRNMELSYNEYFPETTSFKIIRTLALICGSYGANVLENVLTTLEYEKRDKAISRAEEIMAQFSQYPFDLEKETELGVSVNLNKEVKEEIENNPGHDLQLEVIAGVFEVFSRMDMLL
binds	Vps74 (Y260S, N263S, E266S, Y274S, and D278S) (domain or fragment, Saccharomyces cerevisiae, UniProt Q06385 46-345, looked up) NKKIAYDPEESKLRDNINIPTLTLMEEVLLMGLRDREGYLSFWNDSISYALRGCIIIELALRGKIRILDDSARKRFDLSERLIEVIDSSKTGEVLLDETLQLMKNDEPLSISNWIDLLSGETWNLLKINYQLKQVRERLAKGLVDKGVLRTEMKNFFLFDMATHPIADASCKEAIKRRVLSVLVSRNMELSYNEYFPETTSFKIIRTLALICGSSGASVLSNVLTTLESEKRSKAISRAEEIMAQFSQYPFDLEKETELGVSVNLNKEVKEEIENNPGHDLQLEVIAGVFEVFSRMDMLL
